Test results taken from patent US20260317399 (published 2026).
Where a chain is given by its changes, count along the chain named.

T1: FcgRIIaH (human, UniProt P12318)
T1 chain: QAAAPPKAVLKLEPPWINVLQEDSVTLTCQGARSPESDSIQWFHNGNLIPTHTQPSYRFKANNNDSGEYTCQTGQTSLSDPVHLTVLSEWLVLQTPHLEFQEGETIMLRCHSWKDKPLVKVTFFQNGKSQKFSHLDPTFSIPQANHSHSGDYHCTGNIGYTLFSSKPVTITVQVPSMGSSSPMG

T2: FcgRIa (human, UniProt P12314)
T2 chain: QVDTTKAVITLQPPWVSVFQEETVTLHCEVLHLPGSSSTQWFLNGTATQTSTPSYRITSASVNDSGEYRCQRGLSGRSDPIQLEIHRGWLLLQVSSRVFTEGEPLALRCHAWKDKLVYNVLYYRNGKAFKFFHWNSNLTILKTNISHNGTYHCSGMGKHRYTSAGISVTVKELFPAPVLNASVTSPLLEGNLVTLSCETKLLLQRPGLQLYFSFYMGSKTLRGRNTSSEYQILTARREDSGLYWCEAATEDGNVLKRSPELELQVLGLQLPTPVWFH

B1: IL6R-AP029/IL6R-BP410/IL6R-L (antibody)
chain 1: QVQLQESGPGLVKPSETLSLTCAVSGHSISHDHAWSWVRQPPGEGLEWIGFISYSGITNYNPSLQGRVTISRDNSKNTLYLQMNSLRAEDTAVYYCARSLARTTAMDYWGEGTLVTVSSASTKGPSVFPLAPSSKSTSGGTAALGCLVKDYFPEPVTVSWNSGALTSGVHTFPAVLQSSGLYSLSSVVTVPSSSLGTQTYICNVNHKPSNTKVDKKVEPKSCDKTHTCPPCPAPDLLGDDSVFLFPPKPKDTLMISRTPEVTCVVVDVSEEDGEVKFNWYVDGVEVHNAKTKPREEQDNSTYRVVSVLTVLHQDWLNGKEYKCKVSNKALPRPIEKTISKAKGQPREPQVYTLPPSRKELTKNQVSLTCLVKGFYPSDIAVEWESNGQPENNYKTTPPVLDSDGSFFLYSKLTVDKSRWQQGNVFSCSVMHEALHNRYTQKSLSLSP
chain 2: B1 chain 1 with L237T, K358D, R437H, K441E
chain 3: not shown
B2: IL6R-AP029/IL6R-BP408/IL6R-L (antibody)
chain 1: B1 chain 1
chain 2: B1 chain 1 with L237Q, K358D, R437H, K441E
chain 3: not shown
B3: IL6R-AP029/IL6R-BP407/IL6R-L (antibody)
chain 1: B1 chain 1
chain 2: B1 chain 1 with L237D, K358D, R437H, K441E
chain 3: not shown
B4: IL6R-AP029/IL6R-BP409/IL6R-L (antibody)
chain 1: B1 chain 1
chain 2: B1 chain 1 with L237E, K358D, R437H, K441E
chain 3: not shown
B5: IL6R-BP419/IL6R-L (antibody)
chain 1: B1 chain 1 with L237F, K358D, R437H, K441E
chain 2: not shown
B6: IL6R-BP408/IL6R-L (antibody)
chain 1: B1 chain 1 with L237Q, K358D, R437H, K441E
chain 2: not shown
B7: IL6R-BP404/IL6R-L (antibody)
chain 1: B1 chain 1 with L236Y, K358D, R437H, K441E
chain 2: not shown
B8: IL6R-BP259/IL6R-L (antibody)
chain 1: B1 chain 1 with S126D, E270D, K358D, R437H, K441E
chain 2: not shown
B9: IL6R-BP260/IL6R-L (antibody)
chain 1: B1 chain 1 with S126E, E270D, K358D, R437H, K441E
chain 2: not shown
B10: IL6R-BP256/IL6R-L (antibody)
chain 1: B1 chain 1 with S126D, E270D, D298Y, K358D, R437H, K441E
chain 2: not shown
B11: IL6R-BP257/IL6R-L (antibody)
chain 1: B1 chain 1 with S126E, E270D, D298Y, K358D, R437H, K441E
chain 2: not shown
B12: IL6R-AP002/IL6R-BP257/IL6R-L (antibody)
chain 1: B1 chain 1 with E270D, D298Y
chain 2: B1 chain 1 with S126E, E270D, D298Y, K358D, R437H, K441E
chain 3: not shown
B13: IL6R-AP009/IL6R-BP260/IL6R-L (antibody)
chain 1: B1 chain 1 with E270D
chain 2: B1 chain 1 with S126E, E270D, K358D, R437H, K441E
chain 3: not shown
B14: IL6R-AP009/IL6R-BP259/IL6R-L (antibody)
chain 1: B1 chain 1 with E270D
chain 2: B1 chain 1 with S126D, E270D, K358D, R437H, K441E
chain 3: not shown
B15: IL6R-AP002/IL6R-BP256/IL6R-L (antibody)
chain 1: B1 chain 1 with E270D, D298Y
chain 2: B1 chain 1 with S126D, E270D, D298Y, K358D, R437H, K441E
chain 3: not shown
B16: BP557 (antibody)
chain 1: B1 chain 1 with D235E, S269G, E270D, K358D, R437H, K441E
chain 2: not shown

Each binder was assayed against T3, FcgRIIIaV (human, UniProt P08637) (assay: SPR).
T3 sequence (P08637 17-208 F176V): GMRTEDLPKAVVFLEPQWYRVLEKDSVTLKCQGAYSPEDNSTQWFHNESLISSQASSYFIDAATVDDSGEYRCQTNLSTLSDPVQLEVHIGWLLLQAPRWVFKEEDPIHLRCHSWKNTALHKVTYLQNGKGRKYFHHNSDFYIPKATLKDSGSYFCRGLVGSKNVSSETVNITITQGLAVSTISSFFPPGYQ
Work on B1 yielded a Kd of 21 µM. For B2, the Kd was 31 µM. B3 was tested, and the Kd was 23 µM. In the case of B4, the Kd is reported as 28 µM. Binder B5 has a Kd of 38 µM. In the case of B6, the Kd is reported as 50 µM. B7 was tested, and the Kd was 33 µM.

Target: T1, FcgRIIaH
Assay: SPR
B8 was tested, and the Kd was 18 µM. Work on B9 yielded a Kd of 3.9 µM. In the case of B10, the Kd is reported as 21 µM. B11 was tested, and the Kd was 39 µM.

Target: T3, FcgRIIIaV
Assay: SPR
Remark: another data set of the same source
In the case of B12, the Kd is reported as 14 µM. For B8, the Kd was 11 µM. B9 showed a Kd of 21 µM. With B13 the Kd was 16 µM. Binder B14 has a Kd of 22 µM. With B15 the Kd was 17 µM. In the case of B10, the Kd is reported as 11 µM. With B11 the Kd was 19 µM.

Target: T1, FcgRIIaH
Assay: SPR
Remark: another data set of the same source
For B1, the Kd was 5.1 µM. In the case of B2, the Kd is reported as 8.2 µM. B3 was tested, and the Kd was 8.9 µM. B4 gave a Kd of 9.4 µM. Work on B5 yielded a Kd of 38 µM. For B6, the Kd was 77 µM. For B7, the Kd was 3.4 µM.

Target: T2, FcgRIa
Assay: SPR
B16 gave a Kd of 0.013 µM.
